Sequences and labels used below:
B1: mouse decorin core protein, wild type (residues 45-354) (domain or fragment)
chain: APLALISMCPYRCQCHLRVVQCSDLGLDKVPWDFPPDTTLLDLQNNKITEIKEGAFKNLKDLHTLILVNNKISKISPEAFKPLVKLERLYLSKNQLKELPEKMPRTLQELRVHENEITKLRKSDFNGLNNVLVIELGGNPLKNSGIENGAFQGLKSLSYIRISDTNITAIPQGLPTSLTEVHLDGNKITKVDAPSLKGLINLSKLGLSFNSITVMENGSLANVPHLRELHLDNNKLLRVPAGLAQHKYIQVVYLHNNNISAVGQNDFCRAGHPSRKASYSAVSLYGNPVRYWEIFPNTFRCVYVRSAIQLGNYKAAA
modifications: N-linked glycans (four consensus sites for N-linked glycosylation)
notes: vector-encoded residues left at the N-terminus after cleavage of the BM-40 signal peptide; decorin, mouse, UniProt P28654, residues 45-354; the numbering includes the signal peptide; corresponds to the ordered residues of the bovine decorin core crystal structure; Core protein without the glycosaminoglycan attachment region; exists in a monomer-dimer equilibrium; also called WT; wild-type mouse …
B2: mouse decorin core protein Y51A/R52A/Q54A (residues 45-354) (domain or fragment)
chain: B1 chain with Y11A, R12A, Q14A
modifications: N-linked glycans (four consensus sites for N-linked glycosylation)
notes: vector-encoded residues left at the N-terminus after cleavage of the BM-40 signal peptide; decorin, mouse, UniProt P28654, residues 45-354; the numbering includes the signal peptide; triple mutation in the N-terminal cap; also called Y51A/R52A/Q54 mutant; source: HEK293 c18 cells, episomally transfected (pCEP-Pu), secreted; purified from conditioned medium (HisTrap, Superdex 200); not shown: …
B3: mouse decorin core protein R151E (residues 45-354) (domain or fragment)
chain: B1 chain with R111E
modifications: N-linked glycans (four consensus sites for N-linked glycosylation)
notes: vector-encoded residues left at the N-terminus after cleavage of the BM-40 signal peptide; decorin, mouse, UniProt P28654, residues 45-354; the numbering includes the signal peptide; R151E reverses a charge in LRR5; source: HEK293 c18 cells, episomally transfected (pCEP-Pu), secreted; purified from conditioned medium (HisTrap, Superdex 200); not shown: His6, C-terminal, kept

Positions count from the first letter of the chain named. Names and notes keep the numbering of the source.

One data set deals with the molecule itself. As to the kind of experiment: SEC-MALS; injected at 3 mg/ml (83 uM) onto Superdex 200 10/30, TBS (20 mM Tris, 150 mM NaCl, pH 7.5), 0.2 ml/min; three-detector method for the polypeptide mass.
For B1, the “stoichiometry N” value turned out to be 2.

B2: the “stoichiometry N” value is 2.

Take B3: the “stoichiometry N” value turned out to be 2.

Another data set concerns the molecule itself. The data set is described as follows: AUC; sedimentation velocity, 20 °C, 40,000 rpm, PBS, 0.028 (0.77 uM) to 3.4 mg/ml (94 uM); c(s) peaks of monomer and dimer integrated and fitted to a monomer-dimer equilibrium; dimer to monomers.
B1 returned a Kd of 1370 ± 300 nM.

In turn, B2 had a dissociation constant (Kd) of 2300 ± 800 nM.

For the protein B3, the Kd is 470 ± 90 nM.

For the origin of these results see article PMC3853298, “The Concave Face of Decorin Mediates Reversible Dimerization and Collagen Binding*” (The Journal of Biological Chemistry, 2013).
